# Assay results published in patent US10610603B2, “Thymidine kinase gene” (GenVivo, Inc., priority 2013, dated 2020).
# B1: SEQ ID NO: 18 (nucleic acid)
# chain: GTCAGCGGCCGCACCGGTACGCGTCCACCATGGCCCTGCAGAAAAAGCTGGAAGAGCTGGAACTGGATGGCAGCTACCCCGGCCACCAGCACGCCAGCGCCTTCGACCAGGCCGCCCGCAGCCGCGGCCACAGCAACGGCAGCACCGCACTGCGGCCAGGATCTCAGCAGGAGGCCACCGAGGTGCGCCCCGAGCAGAAGATGCCCACCCTGCTGCGCGTGTACATCGACGGACCACACGGCATGGGCAAGACCACCACCACCCAGCTGCTGGTGGCCCTGGGCAGCCGCGACGACATCGTGTACGTGCCCGAGCCCATGACCTACTGGCGCGTGCTGGGCGCCAGCGAGACCATCGCCAACATCTACACCACCCAGCACCGCCTGGACCAAGGCGAGATCAGCGCCGGCGACGCCGCCGTGGTGATGACCAGCGCCCAGATTACAATGGGCATGCCCTACGCCGTGACCGACGCCGTGCTGGCACCACACATCGGCGGCGAGGCCGGCAGCAGCCACGCACCACCACCAGCACTGACCCTGATCTTCGACCGGCACCCAATCGCACACCTGCTGTGCTACCCGGCAGCACGCTACCTGATGGGCTCCATGACACCACAAGCCGTGCTGGCCTTCGTGGCCCTGATCCCACCAACACTGCCCGGCACCAACATCGTGCTGGGCGCCCTGCCCGAGGACCGCCACATCGACCGCCTGGCCAAGCGCCAGCGCCCCGGCGAGCGCCTGGACCTGGCCATGCTGGCCGCCATCCGCCGCGTGTACGGCCTGCTGGCCAACACCGTGCGCTACCTGCAGTGCGGCGGCAGCTGGCGCGAGGACTGGGGCCAGCTGAGCGGCACCGCCGTGCCACCACAGGGCGCCGAGCCACAGAGCAACGCCGGACCACGACCACACATCGGCGACACCCTGTTCACCCTGTTCCGGGCACCAGAGCTGCTGGCACCAAACGGCGACCTGTACAACGTGTTCGCCTGGGCCCTGGACGTGCTGGCCAAGCGCCTGCGCTCCATGCACGTGTTCATCCTGGACTACGACCAGTCACCGGCCGGCTGCCGCGACGCCCTGCTGCAGCTGACCAGCGGCATGGTGCAGACCCACGTGACAACACCCGGCAGCATCCCAACAATCTGCGACCTGGCCCGCACCTTCGCCCGCGAGATGGGCGAGGCCAACTAATAGGGATCCCTCGAGAAGCTTGTCA
# B2: A168H and mutated at amino acids 159-161 from LIF to IFL: mHSV-TK CO MB-IFL A168H(IFL . . . AHL) (nucleic acid)
# chain: GTCAGCGGCCGCACCGGTACGCGTCCACCATGGCCAGCTACCCCGGCCACCAGCACGCCAGCGCCTTCGACCAGGCCGCCCGCAGCCGCGGCCACAGCAACGGCAGCACCGCACTGCGGCCACGGCGCCAGCAGGAGGCCACCGAGGTGCGCCCCGAGCAGAAGATGCCCACCCTGCTGCGCGTGTACATCGACGGACCACACGGCATGGGCAAGACCACCACCACCCAGCTGCTGGTGGCCCTGGGCAGCCGCGACGACATCGTGTACGTGCCCGAGCCCATGACCTACTGGCGCGTGCTGGGCGCCAGCGAGACCATCGCCAACATCTACACCACCCAGCACCGCCTGGACCAAGGCGAGATCAGCGCCGGCGACGCCGCCGTGGTGATGACCAGCGCCCAGATTACAATGGGCATGCCCTACGCCGTGACCGACGCCGTGCTGGCACCACACATCGGCGGCGAGGCCGGCAGCAGCCACGCACCACCACCAGCACTGACCATCTTCCTGGACCGGCACCCAATCGCACACCTGCTGTGCTACCCGGCAGCACGCTACCTGATGGGCTCCATGACACCACAAGCCGTGCTGGCCTTCGTGGCCCTGATCCCACCAACACTGCCCGGCACCAACATCGTGCTGGGCGCCCTGCCCGAGGACCGCCACATCGACCGCCTGGCCAAGCGCCAGCGCCCCGGCGAGCGCCTGGACCTGGCCATGCTGGCCGCCATCCGCCGCGTGTACGGCCTGCTGGCCAACACCGTGCGCTACCTGCAGTGCGGCGGCAGCTGGCGCGAGGACTGGGGCCAGCTGAGCGGCACCGCCGTGCCACCACAGGGCGCCGAGCCACAGAGCAACGCCGGACCACGACCACACATCGGCGACACCCTGTTCACCCTGTTCCGGGCACCAGAGCTGCTGGCACCAAACGGCGACCTGTACAACGTGTTCGCCTGGGCCCTGGACGTGCTGGCCAAGCGCCTGCGCTCCATGCACGTGTTCATCCTGGACTACGACCAGTCACCGGCCGGCTGCCGCGACGCCCTGCTGCAGCTGACCAGCGGCATGGTGCAGACCCACGTGACAACACCCGGCAGCATCCCAACAATCTGCGACCTGGCCCGCACCTTCGCCCGCGAGATGGGCGAGGCCAACTAATAGGGATCCCTCGAGAAGCTTGTCA
# Tests used:
# Type in all cases: cell-based
# [1] = test system: cancer cells; assay: GCV mediated cancer kill following retroviral transduction delivery
# Excerpt: To our knowledge, this is the most GCV selective HSV-TK synthetic gene product for GCV activation which has no Thymidine activity (HAT assay) ever evaluated biologically.
# [2] = test system: A375 human melanoma; assay: In vitro bystander assay; conditions: 0-100% HSV-TK-m2 cells, 5-20 μM GCV
# Protocol: (§1) Cells are seeded at 1-4×10^4 cells/well in a 96 well plate, in triplicate, with mixtures of TK cells ranging from 0-100%. The next day GCV is added at doses ranging from 10 μm to 1 mM. Cells plates at confluency are split 1:30 into 3 plates, 20-24 hours after GCV addition. 5 days later, cells are analyzed by Presto Blue for live cell metabolism and read on a microplate reader. Cell plates at sub-confluency are analyzed 3 days after GCV treatment by Presto Blue.
# (§2) A375 human melanoma and C6 rat glioma stable pure population cell lines were established containing the A168H mutated HSV-TK-m2 gene. The bystander assays were conducted by plating the cancer cells with mixtures of the parental non-HSV-TK-m2 cells with the corresponding HSV-TK-m2 cell line ranging from 0-100% HSV-TK-m2. The mixtures of cancer cells were subsequently exposed to 5-20 μM GCV and cell kill is plotted in the figures below.
# [3] = test system: C6 rat glioma; assay: In vitro bystander assay; conditions: 0-100% HSV-TK-m2 cells, 5-20 μM GCV
# Protocol: as §1, §2
Molecule,GCV mediated cancer kill activity [1],cell kill in mixed populations (bystander effect) [2],cell kill in mixed populations (bystander effect) [3]
B1,exhibited pro-drug GCV enzyme activity and selectivity for their ability to kill cancer cells,significant increases in the mixed populations over what would be considered theoretical,significant increases in the mixed populations over what would be considered theoretical
B2,exhibited GCV mediated cancer cell kill activity,–,–
